Measurements: patent US20050214312A1 (ANTIGENICS, published 2005)

Molecular target: T1, recombinant human or murine heat shock protein 70 (hsp70) (human or murine)
Experiment: binding affinity for HSP70, binding inhibition assay

T1 sequence (A8K5I0 entry or part of it): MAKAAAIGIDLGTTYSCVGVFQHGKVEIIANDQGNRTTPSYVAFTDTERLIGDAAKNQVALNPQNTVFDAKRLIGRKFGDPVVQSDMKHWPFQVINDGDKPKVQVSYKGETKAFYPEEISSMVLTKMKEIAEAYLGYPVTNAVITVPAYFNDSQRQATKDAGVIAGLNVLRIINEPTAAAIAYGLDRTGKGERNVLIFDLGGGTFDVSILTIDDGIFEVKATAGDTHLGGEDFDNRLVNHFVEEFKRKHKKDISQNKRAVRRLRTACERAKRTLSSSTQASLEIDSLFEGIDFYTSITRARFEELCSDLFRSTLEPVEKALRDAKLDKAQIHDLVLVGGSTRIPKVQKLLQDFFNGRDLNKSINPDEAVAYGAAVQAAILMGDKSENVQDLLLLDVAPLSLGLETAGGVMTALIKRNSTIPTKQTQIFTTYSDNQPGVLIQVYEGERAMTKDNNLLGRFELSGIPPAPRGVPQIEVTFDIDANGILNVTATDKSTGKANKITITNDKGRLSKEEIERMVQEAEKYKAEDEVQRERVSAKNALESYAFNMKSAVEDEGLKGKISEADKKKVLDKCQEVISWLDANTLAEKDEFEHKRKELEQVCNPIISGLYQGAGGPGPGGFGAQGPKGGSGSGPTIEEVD

Binder	Kd
NLLRLTGWFRSIINFEKL	1.5 µM
NLLRLTGWGSGSIINFEKL	1.6 µM
NLLRLTGWFFRKSIINFEKL	2.2 µM
NLLRLTGWAKVLSIINFEKL	2 µM
NLLRLTGWQLKSIINFEKL	0.4 µM
NLLRLTGWRKSIINFEKL	0.8 µM

Molecular target: T1, recombinant human or murine heat shock …
Experiment: binding inhibition assay (Hill plot) against labeled reference hybrid antigen on hsp70

Binder	Kd
SIINFEKL [SIINFEKL (ovalbumin amino acids 257-264)]	235 µM
NLLRLTGWGSGSIINFEKL	1.6 µM
NLLRLTGWFFRKSIINFEKL	2.2 µM
NLLRLTGWRKSIINFEKL	0.8 µM
